Measurements published in patent publication US20200347103A1.

Target: purified folded MHC-complex (Example 34)
Test: sandwich ELISA: W6/32 coated, detection with HRP-conjugated rabbit anti-β2m

W6/32 mouse-anti-HLA-ABC antibody (Dako M0736)
OD450 of wells with MHC complex relative to wells with the negative control β2m: 6 fold
